The results in this text go back to the DeepSol protein solubility set.

The nature of the data set: soluble on expression in E. coli; label from the status in PepcDB or PDB records.
Regarding “SAESPAFLSAKDEGSFAYLTIKDRTPQILTKVIDTLHRHKSEFFEKHGEEGIEAEKKAISLLSKLRNELQTDKPITPLVDKCVDTHIWNQYLEYQRSLLNEGDGEPRWFFSPWLFVECYMYRRIHEAIMQRQVYSQ”, the “soluble on expression in E. coli” value is reported as “soluble”. Then “MGSDKIHHHHHHMTSKPSTSDGRAHSISHVPGTHMRGTSASHSPRPFRPCADCTCSPGLLSRQGRRASLFLRQLENSRRSSSMLLNELKGAGGGSSAGNGSVYSCDSLCAVNREVNTTDRLLKLRQEMKKHDLCCYIVPSCDEHQSEYVSLRDQRRAFISGFSGSAGVACITRDLLNFNDDHPDGKSILSTDGRYFNQARQELDYNWTLLRQNEDPITWQEWCVREALEMAKGLGNKEGMVLKIGIDPKLITFNDYVSFRKMIDTKYDAKGKVELVPVEENLVDSIWPDFETLPERPCNDLLLLKYEFHGEEFKDKKEKLLKKLNDKASSATTGRNTFIVVALDEICWLLNLRGSDIDYNPVFFSYVAINEDETILFTNNPFNDDISEYFKINGIEVRPYEQIWEHLTKITSQASSAEHEFLIPDSASWQMVRCLNTSTNANGAIAKKMTAQNFAIIHSPIDVLKSIKNDIEIKNAHKAQVKDAVCLVQYFAWLEQQLVGREALIDEYRAAEKLTEIRKTQRNFMGNSFETISSTGSNAAIIHYSPPVENSSMIDPTKIYLCDSGSQFLEGTTDITRTIHLTKPTKEEMDNYTLVLKGGLALERLIFPENTPGFNIDAIARQFLWSRGLDYKHGTGHGIGSFLNVHEGPMGVGFRPHLMNFPLRAGNIISNEPGYYKDGEYGIRIESDMLIKKATEKGNFLKFENMTVVPYCRKLINTKLLNEEEKTQINEYHARVWRTIVHFLQPQSISYKWLKRETSPL”, with “not soluble”; and “AHHHHHHGSHFIKHFEEELIALSNAPHRGGLTKARGFFFMKVEKNYRGDYKKDCLEFERKNGLRSFVGFMTAVDIEKVMAIKSLGNVEVYLTAGISNPAIAGEEPKPWEPGTINMAIVIDEGLTIGAMANAIMTATEAKTYTLLKLGYNATGTTSDGIGVFARQGNVEWAGTATRLGFEIGKAVREALEESIKKWEKIKSL”, with “soluble”; and “MSLRIAIVGAGALGLYYGALLQRSGEDVHFLLRRDYEAIAGNGLKVFSINGDFTLPHVKGYRAPEEIGPMDLVLVGLKTFANSRYEELIRPLVEEGTQILTLQNGLGNEEALATLFGAERIIGGVAFLCSNRGEPGEVHHLGAGRIILGEFLPRDTGRIEELAAMFRQAGVDCRTTDDLKRARWEKLVWNIPFNGLCALLQQPVNLILARDVSRKLVRGIMLEVIAGANAQGLATFIADGYVDDMLEFTDAMGEYKPSMEIDREEGRPLEIAAIFRTPLAYGAREGIAMPRVEMLATLLEQATGEGHHHHHH”, with “soluble”. As to “MSERAPLVIIGTGLAGYNLAREWRKLDGETPLLMITADDGRSYSKPMLSTGFSKNKDADGLAMAEPGAMAEQLNARILTHTRVTGIDPGHQRIWIGEEEVRYRDLVLAWGAEPIRVPVEGDAQDALYPINDLEDYARFRQAAAGKRRVLLLGAGLIGCEFANDLSSGGYQLDVVAPCEQVMPGLLHPAAAKAVQAGLEGLGVRFHLGPVLASLKKAGEGLEAHLSDGEVIPCDLVVSAVGLRPRTELAFAAGLAVNRGIVVDRSLRTSHANIYALGDCAEVDGLNLLYVMPLMACARALAQTLAGNPSQVAYGPMPVTVKTPACPLVVSPPPRGMDGQWLVEGSGTDLKVLCRDTAGRVIGYALTGAAVNEKLALNKELPGLMA”, the “soluble on expression in E. coli” value is on record as “soluble”.

Turning to “MTIRINNISLDINEDLSLLKNKVAKKLRMSKDEIGDIKIIKESLDARKKNLIKFNYCINIEHEDEEKIVARLNDKDVKIDKVNYDFDFNFGEKKLQHRPVVIGLGPAGLFAALLLAKKGFNPIVFERGEDVDSRTKTVEEFWRTGELNPESNVQFGEGGAGAFSDGKLTTRIKDTRCDYVLDALVRNGAPEEIIYKGKPHVGTDILKNVVKNIREEIKRHGGEVHFNSRFEGIIKKDNKLKGIKVNGEEVPCEVAILALGHSSRDTYEMLFNEGVFMKQKPFAIGVRIEHPQEIINLSQYGEKYANHPRLKAAEYRLAYQSKTLDRAVYSFCMCPGGVVVNASSEEKRLCVNGMSYHARDKENANSALVVTVGPNDFGGDHPLEGMKFQRHYEELAFKLGGGNYNTPVQLVGDFMKDRVTTKLGKVNPSVLSNGYRFEDLRKCLPSYVIDGLKEGITDFDRKIKGFGHSDSVLTGIETRTSAPVRIERNEKLQSISLEGLYPAGEGAGFAGGIVSAAVDGLKVAENIMKEYRVLEHHHHHH”, the “soluble on expression in E. coli” value is recorded as “not soluble”. Then “MGSDKIHHHHHHMLFLMDFSMQTHAQTGDITPVVFDQFFQNYYLINPASSDSTGKIQVNIGNRSLIGLFDGVNRLYVDGNVRINHRTAMQYSRLGALVIAYNDGAFINRTRAYLRYSWSTSISERASISAGISAGMVKYTFLASQAGGGGSSTSFDGNAGLWYIRPKLKIGISYQQFTRSELTPVNQTFLLTPYINVNAVYASYLSAHVLLTTHVFYRYESGSVFDIQAAPVFLFNDLFEAGINLRYKRGVAILFGLKSIHVGTGNIRFMGSFMLSTRKLANTLDNAFELSAGYSF”, with “not soluble”; and “GHFAPQQMKEAIEIYKTLFEPSDVLDEPYVIVCLNTIVAENDDEAQYLASSMAQVMVSITRGRMQPVQPPTHDLQNILTPREYAMAMERQKISLIGSENTVQQKIQDFMETYGEVNEIMAISYIYDKDMQLDSYRRFKN”, with “not soluble”; and “MGSDKIHHHHHHMLIEIPNVFSKQEVSHLREQLDARRWIDGNQTSGAMATTRKRNQQLDKDDPVAVALGQQIMDRLLAHPQFVSAALPLQFYPPLFNRYQGGETFGYHIDNAIRSTPDGMIRTDLSATLFLSEPENYQGGELVIQDTYGQQSIKLSAGSLVLYPSSSLHQVTPVLSGERTAAFMWLQSMVRDEGQRRLLFQLDQSIQSLTAQTAAEQELFNLSGVYHNLLRRWSEL”, with “not soluble”. As for “ENKDNKGQIKTLDRDGQSITSYSFFAKNGDNVEKINVEVDQRQLSKDESLKLMENSRNKLVKLVLDKNKSANHIDKPLNLIREIPDTDISVTWDISDSRVLNYDGQIMSDVSQEGTIVNLTANMELNELTLSYTFAVNVFPRNYKGDIQEAVQEYINSQDSEQKKIFLPENISGEKISYYKSASK”, the entry is “soluble”; as for “MGSDKIHHHHHHMMNATPWLTVSRGTAPLLVSIPHTGIDLAGLEPRLVSPWLGRRDCDWWIDKLYDFANDLGATVVHTAISRTVIDVNRDPTGVSLYPGQTTTTLCPTDTFDGDPLYRMGEEPTPSEIDQRRETYFKPYHAALQAEIDRLRGMHEKIVLYDCHSIRSVLPRLFEGTLPVFNLGTNDGKSTDPVLQDKVAAILAATGETWVVNGRFKGGSITRGFGQPQNGVHALQMELSNRGYMREPSEKGSPENWPVPYDPTYAAPIRATLKTILETAIDWARR”, “not soluble”. As for “MLDKLRSRLVHAGPSLMSVPVKLTPFALKRQVLEQVLSWQFRQALADGELEFLEGRWLSIHVRDIDLKWYTTVENEKLIVSQQADADVSFSADASDLLMIAARKQDPDTLFFQRRLVIEGDTELGLYVKNLMDAIELEQMPKALRVMLLQLADFVEAGMKNSPETKQTSVGEPC”, the “soluble on expression in E. coli” value is given as “not soluble”.

In the case of “MTEAPKIEKSFNEISDMEQIFVEHHSFGIVSLSSISESLKRLELSADLNIQELLAIKKVLQSSSDMIHFYSDLDNVSFQSLDRLFENLEQFPNLQGSFQAINDGGFLEHFASPELERIRRQLTNSERRVRQILQDMLKEKAELLSENLIASRSGRSVLPVKNTYRNRISGVVHDISSSGSTVYIEPRAVVTLNEEITQLRADERHEESRILHAFSDLLRPHVATIRNNAWILGHLDFVRAKYLFMSDNKATIPEISNDSTLALINVRHPLLSNPVANDLHFDQDLTAIVITGPNTGGKTIMLKTLGLAQLMGQSGLPVLADKGSKIAVFNNIFADIGDEQSIEQSLSTFSSHMTHIVSILNEADHNSLVLFDELGAGTDPQEGASLAMAILEHLRLSNIKTMATTHYPELKAYGIETNFVENASMEFDAETLSPTYRFMQGVPGRSNAFEIASRLGLAPFIVKQAKQMTDSDSDVNRIIEQLEAQTLETRRRLDHIKEVEQENLKFNRAVKKLYNEFSHERDKELEKIYQEAQEIVDMALNESDTILKKLNDKSQLKPHEIIDAKAQIKKLAPQVDLSKNKVLNKAKKIKAARAPRIGDDIIVTSYGQRGTLTSQLKDGRWEAQVGIIKMTLTQDEFTLVRVQEEQKVKSKQINVVKKADSSGPRARLDLRGKRYEEAMQELDNFIDQALLNNMGQVDIIHGIGTGVIREGVTKYLRRNKHVKHFAYAPQNAGGSGATIVTLGLEHHHHHH”, the “soluble on expression in E. coli” value was “not soluble”. As for “MENNTNQENSDALENVSFACIRPEILYFGTPVVLISTIDREGKVNLAPISSAWALGYSVVMGIGTESKTMENLRETGECTLNFPEGALWESVERLAPLTGKYPVPQDKADKFRFESNKFGVAGLTPCDSEVVKPPRVLECRLQMEACVKSVRRISEPDVQAGIVEVKVVRVHARNDLIIDGKYIDPKQWKPLIYSFRHYFTLGCDLGKTFRSKI”, the entry is “not soluble”; as for “MIDELATKANVALKAMEDFTQEQVDHIVHQMAMAALDQHMPLAKMAVEETGRGIYEDKAIKNMYASEYIWNNIKHDKTVGVINKDEQTGLMEIAEPVGVVCGVTPTTNPTSTTIFKSLIALKTRNPIVFAFHPSAQKCSAEAARIVRDAAIAAGAPENCIQWIEQPSIDATSALMNHPGIAIVLATGGAGMVKSAYSTGKPALGVGPGNVPAYIEKTAKVKRAVNDLIVSKSFDNGMICASE”, “not soluble”; as for “MGSDKIHHHHHHDTDKGLARRLPPPVPKDQKNDTDVDIKKRNLLVVLINSNNQILCGDQFVDIKQLKERIKEFIDNPYNDEHKPERVEADVPFFGKMMVTKNHVISLQNDRGTEYQAYIDVQNEIAAAYNELRNKVSKEKFGKNFADLDEEQQKAVQQIYPQKISEAEPKNYGGKK”, “not soluble”. Then “MRSLARGVTTNISKLIEARPKNTGQTVYLTHVKWVTGKSQLEHYFKRYGSIQSVNMFYDPDTGLHRGFASITFDSKDGANKAIEQRPHVIDGDRVDVEPYIPLISKNKKKDLML”, with “not soluble”.

Consider “MGSDKIHHHHHHVKSDYYKEPIVINTDALIPPSPSDDMWKNRKRAYYMYDAPDVPTCSIVVTGYNRLHKTKYCVECILKYTRDVDYELILVDNGSDDGTLDFFQSVPYENKTIIRMTQNKGATLPFKYYINILKGKYIVNISNDIYVTQNWLSNLLKCYQSDPKIGFVEPVSSNVSNLQEVDLGFSDFDDMQKKAAAFNQSDPAKWEERLRLISVINVFLRDVLDNVGINDAAYFYDFIEDDLCARIRRMGYKLVLCRDTWICHDHDFRNLEDKDPVAFQASLEHGRAVYRKKYYGIDPWDDINNFELTLLAQLDTAKIPRAVKALTVDVRCGAPALEIRNRLKRRGITDVASYAFTTAAKYYLDLQTVCSEVQCDRIDFIQQHYANGTFDLVVLGEPVNTYPLPVRLLQNLYDFLKPGGLLLFKVRNTDDYRAFLRSIGMEVASDPDLPASTPLNEVLACLKLFGAVDCTVAGELESISVADQEFLMNKLKAANPNADQATLNRLCIKDYCIKVIRK”, for which the “soluble on expression in E. coli” value is recorded as “not soluble”.
